In experiment [1] the target is Kelch domain-containing protein 2, KLDC2 (human) (UniProt Q9Y2U9). In words: Flag co-IP, MudPIT MS, MG132.
Experiment [2] deals with Kelch domain-containing protein 3, KLDC3 (human) (UniProt Q9BQ90). In words: Flag co-IP, MudPIT MS, MG132.
Experiment [3] deals with E3 ubiquitin-protein ligase Topors (human) (UniProt Q9NS56). In words: Flag co-IP, MudPIT MS, MG132.
For experiment [4], the target named is Von Hippel-Lindau disease tumor suppressor, VHL (human) (UniProt P40337). Kind of experiment: Flag co-IP, MudPIT MS, MG132.
The target of experiment [5] is Kelch-like protein 22. KLEIL22 (human) (UniProt Q53GT1). Kind of experiment: Flag co-IP, MudPIT MS, MG132.
In the next experiment the target is Cullin 3 (human) (UniProt Q13618). Kind of experiment: Flag co-IP, MudPIT MS, MG132.
For experiment [6], the target named is Kelch repeat and BTB domain-containing protein 7, KBTB7 (human) (UniProt Q8WVZ9). Kind of experiment: Flag co-IP, MudPIT MS, MG132.
In experiment [7] the target is RING-box protein 1, RBX1 (human) (UniProt P62877). Kind of experiment: Flag co-IP, MudPIT MS, MG132.
Experiment [8] has as its target CUL4- and DDB I-associated WDR protein 2, WDR26 (human) (UniProt Q9H7D7). In words: Flag co-IP, MudPIT MS, MG132.
Experiment [9] deals with CUL3-interacting protein I. KLHL12 (human) (UniProt Q53G59). Kind of experiment: Flag co-IP, MudPIT MS, MG132.
For experiment [10], the target named is BTB and Kelch domain-containing protein 2, KLHL13 (human) (UniProt Q9P2N7). In words: Flag co-IP, MudPIT MS, MG132.
The target of the next experiment is Cullin 4B (human) (UniProt Q13620). Kind of experiment: Flag co-IP, MudPIT MS, MG132.
For experiment [11], the target named is DDB1- and CUL4-associated factor I. VprBP (human) (UniProt Q9Y4B6). Kind of experiment: Flag co-IP, MudPIT MS, MG132.
For another experiment, the target named is Elongin B (human) (UniProt Q15370). Kind of experiment: Flag co-IP, MudPIT MS, MG132.
The target in experiment [12] is Bromodomain and WD-repeat domain-containing protein 2, WDR 1 I (human) (UniProt Q9BZH6). Kind of experiment: Flag co-IP, MudPIT MS, MG132.
The target of another experiment is Cullin 1 (human) (UniProt Q13616). In words: Flag co-IP, MudPIT MS, MG132.
A further experiment addresses Praja 2 (human) (UniProt O43164). In words: Flag co-IP, MudPIT MS, MG132.
In experiment [13] the target is Ubiquitin conjugation factor E4 B, UBE4B (Ufd2ortholog) (human) (UniProt O95155). In words: Flag co-IP, MudPIT MS, MG132.
In experiment [14] the target is RING finger protein 126. RNE126 (human) (UniProt Q9BV68). In words: Flag co-IP, MudPIT MS, MG132.
Another experiment concerns the target UBR1 (human) (UniProt Q8IWV7). Kind of experiment: Flag co-IP, MudPIT MS, MG132.
Experiment [15] deals with Galectin-3 binding protein. LG3BP (human) (UniProt Q08380). Kind of experiment: Flag co-IP, MudPIT MS, MG132.
Another experiment deals with T1, endogenous UFD1 (human) (UniProt Q92890).
T1 sequence (looked up): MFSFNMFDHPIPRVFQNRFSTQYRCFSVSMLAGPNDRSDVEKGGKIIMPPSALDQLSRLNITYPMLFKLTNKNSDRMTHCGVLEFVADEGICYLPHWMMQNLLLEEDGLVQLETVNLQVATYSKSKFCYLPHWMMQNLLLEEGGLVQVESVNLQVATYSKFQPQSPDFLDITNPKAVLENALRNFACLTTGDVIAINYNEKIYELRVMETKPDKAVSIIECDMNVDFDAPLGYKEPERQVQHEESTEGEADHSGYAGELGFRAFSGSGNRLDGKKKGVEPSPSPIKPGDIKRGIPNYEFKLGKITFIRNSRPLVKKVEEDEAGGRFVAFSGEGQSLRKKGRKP
In words: Flag co-IP, 293 cells, MudPIT MS.

Kelch domain-containing protein 2, KLDC2 (human), sequence (Q9Y2U9 whole entry, the tested form may be a part): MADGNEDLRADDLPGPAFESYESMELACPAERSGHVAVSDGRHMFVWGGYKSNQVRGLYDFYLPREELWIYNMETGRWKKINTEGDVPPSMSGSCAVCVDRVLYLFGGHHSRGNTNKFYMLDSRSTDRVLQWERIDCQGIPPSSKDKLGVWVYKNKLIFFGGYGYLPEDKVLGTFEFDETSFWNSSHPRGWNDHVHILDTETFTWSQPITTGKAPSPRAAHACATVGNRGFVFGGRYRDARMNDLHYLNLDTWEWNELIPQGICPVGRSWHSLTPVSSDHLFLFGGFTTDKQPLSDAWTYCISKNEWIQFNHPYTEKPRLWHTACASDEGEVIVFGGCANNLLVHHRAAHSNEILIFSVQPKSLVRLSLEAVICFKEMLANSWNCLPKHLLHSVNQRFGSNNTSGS
Cullin 4B (human), sequence (Q13620 other isoform, or with tags, fused parts or gaps limits assumed): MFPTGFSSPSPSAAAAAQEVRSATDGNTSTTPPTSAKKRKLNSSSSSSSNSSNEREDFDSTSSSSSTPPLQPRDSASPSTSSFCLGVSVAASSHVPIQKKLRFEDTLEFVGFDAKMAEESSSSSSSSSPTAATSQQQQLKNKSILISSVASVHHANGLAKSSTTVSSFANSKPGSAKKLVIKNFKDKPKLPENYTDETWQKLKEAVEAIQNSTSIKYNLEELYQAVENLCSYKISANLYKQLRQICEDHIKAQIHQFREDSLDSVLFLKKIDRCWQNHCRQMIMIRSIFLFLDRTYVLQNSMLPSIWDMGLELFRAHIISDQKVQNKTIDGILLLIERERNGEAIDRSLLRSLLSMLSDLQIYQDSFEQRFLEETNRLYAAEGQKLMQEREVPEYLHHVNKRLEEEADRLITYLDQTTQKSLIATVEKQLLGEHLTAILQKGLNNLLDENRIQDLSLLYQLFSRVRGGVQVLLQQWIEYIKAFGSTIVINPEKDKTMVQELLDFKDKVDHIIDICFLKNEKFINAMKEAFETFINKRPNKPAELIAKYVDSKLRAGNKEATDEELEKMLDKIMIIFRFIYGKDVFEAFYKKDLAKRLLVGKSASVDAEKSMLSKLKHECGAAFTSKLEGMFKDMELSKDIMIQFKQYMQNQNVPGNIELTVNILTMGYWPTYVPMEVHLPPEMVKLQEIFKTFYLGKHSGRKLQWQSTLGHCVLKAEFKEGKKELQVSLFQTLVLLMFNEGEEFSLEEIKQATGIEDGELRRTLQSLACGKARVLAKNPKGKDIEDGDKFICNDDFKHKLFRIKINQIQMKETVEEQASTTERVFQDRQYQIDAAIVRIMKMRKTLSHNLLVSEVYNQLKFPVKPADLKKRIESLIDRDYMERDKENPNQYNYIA
Ubiquitin conjugation factor E4 B, UBE4B (Ufd2ortholog) (human), sequence (O95155 whole entry): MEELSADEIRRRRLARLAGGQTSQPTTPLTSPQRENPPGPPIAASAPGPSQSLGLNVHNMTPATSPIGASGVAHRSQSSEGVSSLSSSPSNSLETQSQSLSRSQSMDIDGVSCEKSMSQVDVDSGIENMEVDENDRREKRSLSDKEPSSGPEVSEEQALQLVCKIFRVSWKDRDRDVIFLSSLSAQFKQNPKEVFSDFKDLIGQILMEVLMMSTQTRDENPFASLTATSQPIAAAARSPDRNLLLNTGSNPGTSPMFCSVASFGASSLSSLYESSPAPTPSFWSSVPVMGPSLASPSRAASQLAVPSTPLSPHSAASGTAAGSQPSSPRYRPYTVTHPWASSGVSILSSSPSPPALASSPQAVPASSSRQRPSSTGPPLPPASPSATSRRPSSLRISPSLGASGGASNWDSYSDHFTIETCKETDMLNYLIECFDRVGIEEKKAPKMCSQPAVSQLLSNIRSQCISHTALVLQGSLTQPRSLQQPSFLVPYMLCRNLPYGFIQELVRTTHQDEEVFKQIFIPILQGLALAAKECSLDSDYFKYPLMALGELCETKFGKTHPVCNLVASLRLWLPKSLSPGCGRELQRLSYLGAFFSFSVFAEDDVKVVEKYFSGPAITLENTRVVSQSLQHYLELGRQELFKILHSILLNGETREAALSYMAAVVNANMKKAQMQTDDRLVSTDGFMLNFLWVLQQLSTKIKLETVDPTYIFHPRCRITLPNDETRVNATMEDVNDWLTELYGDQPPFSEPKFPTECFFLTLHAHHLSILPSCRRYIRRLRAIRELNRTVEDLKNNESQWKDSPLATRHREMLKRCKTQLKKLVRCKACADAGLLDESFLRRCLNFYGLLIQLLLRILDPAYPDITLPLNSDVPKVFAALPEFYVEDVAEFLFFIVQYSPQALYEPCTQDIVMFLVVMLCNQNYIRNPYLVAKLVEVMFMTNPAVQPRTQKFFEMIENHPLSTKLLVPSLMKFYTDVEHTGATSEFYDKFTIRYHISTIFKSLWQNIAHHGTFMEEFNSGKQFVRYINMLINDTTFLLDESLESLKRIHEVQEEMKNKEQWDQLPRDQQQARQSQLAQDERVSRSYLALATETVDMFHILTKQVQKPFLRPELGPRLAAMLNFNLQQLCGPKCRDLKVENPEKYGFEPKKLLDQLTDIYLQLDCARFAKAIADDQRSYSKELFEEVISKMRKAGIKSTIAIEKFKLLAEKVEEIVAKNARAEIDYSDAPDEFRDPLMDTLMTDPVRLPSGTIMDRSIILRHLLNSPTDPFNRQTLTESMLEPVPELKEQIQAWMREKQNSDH
Bromodomain and WD-repeat domain-containing protein 2, WDR 1 I (human), sequence (Q9BZH6 whole entry, the tested form may be a part): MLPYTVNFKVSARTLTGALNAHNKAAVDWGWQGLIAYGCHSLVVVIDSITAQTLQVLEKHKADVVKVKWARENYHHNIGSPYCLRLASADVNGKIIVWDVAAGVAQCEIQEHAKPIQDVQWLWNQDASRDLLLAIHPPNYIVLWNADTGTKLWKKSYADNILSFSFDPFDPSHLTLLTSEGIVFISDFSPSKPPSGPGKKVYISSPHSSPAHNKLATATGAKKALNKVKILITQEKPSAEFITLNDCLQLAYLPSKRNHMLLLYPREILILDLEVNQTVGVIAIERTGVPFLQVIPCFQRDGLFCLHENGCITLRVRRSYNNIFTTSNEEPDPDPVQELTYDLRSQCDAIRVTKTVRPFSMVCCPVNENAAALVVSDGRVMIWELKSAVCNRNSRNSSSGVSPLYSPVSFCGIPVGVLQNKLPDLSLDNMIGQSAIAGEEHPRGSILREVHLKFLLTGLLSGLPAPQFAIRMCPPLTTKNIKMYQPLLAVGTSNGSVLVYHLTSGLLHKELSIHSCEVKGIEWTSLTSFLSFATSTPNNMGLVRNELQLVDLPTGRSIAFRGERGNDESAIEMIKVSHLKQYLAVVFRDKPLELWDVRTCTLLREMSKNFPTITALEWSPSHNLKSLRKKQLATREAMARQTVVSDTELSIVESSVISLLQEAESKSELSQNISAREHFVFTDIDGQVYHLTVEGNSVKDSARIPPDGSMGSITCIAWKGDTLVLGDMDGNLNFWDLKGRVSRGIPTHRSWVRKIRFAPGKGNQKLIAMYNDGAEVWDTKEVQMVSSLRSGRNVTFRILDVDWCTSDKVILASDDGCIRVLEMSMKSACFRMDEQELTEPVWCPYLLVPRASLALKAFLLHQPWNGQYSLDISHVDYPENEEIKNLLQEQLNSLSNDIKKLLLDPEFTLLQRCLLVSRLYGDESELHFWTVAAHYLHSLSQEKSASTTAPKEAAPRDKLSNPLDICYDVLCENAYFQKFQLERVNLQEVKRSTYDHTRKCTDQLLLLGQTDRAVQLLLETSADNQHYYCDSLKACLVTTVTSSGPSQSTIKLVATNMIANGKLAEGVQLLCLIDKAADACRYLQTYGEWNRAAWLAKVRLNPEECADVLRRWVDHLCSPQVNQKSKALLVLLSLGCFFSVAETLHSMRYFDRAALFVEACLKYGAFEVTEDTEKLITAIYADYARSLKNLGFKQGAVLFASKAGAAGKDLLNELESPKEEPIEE
Elongin B (human), sequence (Q15370 other isoform, or with tags, fused parts or gaps limits assumed): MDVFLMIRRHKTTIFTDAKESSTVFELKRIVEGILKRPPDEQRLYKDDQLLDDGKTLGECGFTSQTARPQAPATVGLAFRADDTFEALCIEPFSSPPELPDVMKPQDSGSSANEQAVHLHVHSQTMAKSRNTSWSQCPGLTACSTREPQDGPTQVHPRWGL
Cullin 1 (human), sequence (Q13616 whole entry): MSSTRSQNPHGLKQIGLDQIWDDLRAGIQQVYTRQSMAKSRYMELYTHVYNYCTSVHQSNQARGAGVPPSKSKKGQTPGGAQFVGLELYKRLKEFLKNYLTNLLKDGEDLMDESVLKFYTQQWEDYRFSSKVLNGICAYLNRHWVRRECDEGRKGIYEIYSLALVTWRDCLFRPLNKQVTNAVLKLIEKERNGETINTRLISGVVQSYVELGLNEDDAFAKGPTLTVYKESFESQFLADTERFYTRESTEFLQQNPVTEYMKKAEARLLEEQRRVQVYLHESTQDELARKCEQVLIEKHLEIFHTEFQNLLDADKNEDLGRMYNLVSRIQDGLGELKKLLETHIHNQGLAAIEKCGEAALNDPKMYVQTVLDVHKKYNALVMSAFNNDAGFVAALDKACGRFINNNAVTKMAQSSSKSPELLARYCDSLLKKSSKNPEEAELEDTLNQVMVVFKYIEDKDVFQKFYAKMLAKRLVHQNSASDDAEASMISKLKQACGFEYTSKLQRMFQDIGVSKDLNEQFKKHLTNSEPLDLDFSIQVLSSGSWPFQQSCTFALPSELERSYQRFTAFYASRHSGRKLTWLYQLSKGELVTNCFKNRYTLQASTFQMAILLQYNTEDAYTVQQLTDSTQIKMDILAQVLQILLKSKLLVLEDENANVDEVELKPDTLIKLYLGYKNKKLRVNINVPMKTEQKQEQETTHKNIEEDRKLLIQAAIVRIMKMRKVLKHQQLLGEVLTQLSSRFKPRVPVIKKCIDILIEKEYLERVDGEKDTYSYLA
RING finger protein 126. RNE126 (human), sequence (Q9BV68 2-311 limits assumed): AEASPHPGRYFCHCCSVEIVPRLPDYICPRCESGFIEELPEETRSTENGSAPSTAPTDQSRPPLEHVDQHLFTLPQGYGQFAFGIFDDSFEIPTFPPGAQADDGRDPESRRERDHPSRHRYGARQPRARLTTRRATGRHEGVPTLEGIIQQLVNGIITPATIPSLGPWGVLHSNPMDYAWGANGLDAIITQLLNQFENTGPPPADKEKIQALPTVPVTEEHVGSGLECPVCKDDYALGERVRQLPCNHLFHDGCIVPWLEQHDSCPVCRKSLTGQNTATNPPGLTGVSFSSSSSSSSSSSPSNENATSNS

Flag-UBXD7 (from UniProt O94888 1-489): the abundance factor (AF) in [1] is 3.2; in [2] it was 1.7; in [3], 0.6; in [4], 2.1; in experiment [5] it was 2.8; with Cullin 3 (human), 8.4. The abundance factor (AF) was 1 in experiment [6]; 4.1 in experiment [7]; 7.2 in [8]; 1.2 in [9]; 1.4 in experiment [10]; 2.7 with Cullin 4B (human). Moreover, the results for the abundance factor (AF) (in [11]; in the experiment with Elongin B (human); in experiment [12]) were 0.6, 9.7 and 1.3, respectively. The sequence count in experiment [1] came out at 4; in experiment [2], 3; in experiment [3] it was 3; in [4], 2; in [5], 8; in the experiment with Cullin 3 (human), 16. Also, the sequence count in [6] amounted to 3; in experiment [7] it was 2; in [8], 9; in experiment [9], 3; in experiment [10], 4; with Cullin 4B (human), 10. Further, the sequence count in experiment [11] came to 3; with Elongin B (human), 5; in experiment [12], 5. Besides, the spectrum count in experiment [1] was 6; in experiment [2] it was 3; in experiment [3] it was 3; in [4], 2; in experiment [5], 8; with Cullin 3 (human), 30. The spectrum count in experiment [6] stood at 3; in experiment [7], 2; in experiment [8] it was 17; in experiment [9], 3; in [10], 4; in the experiment with Cullin 4B (human) it was 11. For the same substance, the spectrum count was found to be 4 in experiment [11], 7 with Elongin B (human) and 7 in [12].

As for Flag-SAKS1 (from UniProt Q04323 1-297), in the experiment with Cullin 1 (human), the abundance factor (AF) amounted to 1.5, the sequence count came out at 2 and the spectrum count came to 3. Moreover, in the experiment with Praja 2 (human), the abundance factor (AF) was 1.1, the sequence count stood at 2 and the spectrum count is 2. In addition, in experiment [13], the abundance factor (AF) amounted to 1.5, the sequence count is 5 and the spectrum count is 5.

In experiment [14], Flag-UBXD8 (from UniProt Q96CS3 1-445) yielded an abundance factor (AF) of 1.4, a sequence count of 2 and a spectrum count of 2. In the experiment with UBR1 (human), this substance had an abundance factor (AF) of 0.4, a sequence count of 3 and a spectrum count of 3. Further, in experiment [15], the abundance factor (AF) was found to be 1.1 and the spectrum count stood at 3. In the experiment with endogenous UFD1 (human), this substance yielded a sequence count of 7, a sequence coverage of 29.4% and a spectrum count of 82.

The record behind these values is US20090192084A1.
